# Measurements as given in patent publication US20060140929.
# Positions count from the first letter of the chain named.
# Columns and labels:
# [1] = test system: T1, hirudin mutein M 2 (I29R L30H)
# T1 sequence: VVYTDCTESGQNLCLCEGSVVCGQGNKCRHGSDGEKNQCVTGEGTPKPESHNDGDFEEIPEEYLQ
# [2] = test system: T2, hirudin mutein M 1 (I29A L30A)
# T2 sequence: T1 sequence with R29A, H30A
substance,measurement,setting,value
thrombin,"Relative activity (ED50 variant/ED50 WT hirudin), chromogenic thrombin cleavage assay",[1],1.2
same,"Relative activity (ED50 variant/ED50 WT hirudin), chromogenic thrombin cleavage assay",[2],1.4
